Target: patched (on patched-transfected EBNA-293 cells)
Experiment: FACS competition with Shh-Ig on patched-transfected EBNA-293 cells

| IC50 [µg/mL] | Substance |
| --- | --- |
| 0.15 | soluble human Sonic hedgehog N-terminal fragment (unmodified, produced in E. coli) (from UniProt Q14623 28-201) (ligand) |
| 0.4 | tethered human Sonic hedgehog (N-terminal palmitoyl, C-terminal cholesterol) purified from High Five insect cells (from UniProt Q14623 28-201) (ligand) |
